Test results from PMC3387196.

Molecular target: Nedd4 (UniProt P46935)
Experiment: anti-FLAG co-IP, Ala mutants
Settings: reference: wild type; sites T1859,S1962

binding against the reference: weaker
Substance: Kif26b (from UniProt Q7TNC6) T1859A/S1962A
